B1: TCN-504 (3251_K17) (antibody, V domains shown)
VH: QVQLQESGPGLVKPSETLSLTCAVSGVSISNIDFYWGWIRQPPGKGLEWIGNIYYTGITFYNPSLSSRVAISIDTSKNQFSLTLTSVTAADTAMYYCARHYGDSEAINDAFDIWGQGTMLTVSS
VL: EIVMTQSPATLSVSPGERATLSCRASQSVGNSLAWYQQRPGQAPRLLIYGASTRATGIPPRFSGSGSGTEFTLTISSLQTEDFAVYYCQQYINWRPLSFGGGTKVEIK
B2: TCN-523 (5248_A17) (antibody, V domains shown)
VH: QVQLVQSGAEVKKPGSSVKVSCKASGGSFSNYAFSWVRQAPGQGLEWMGGTIPLLGTTNYAQKFQGRVTISADQFTSTAYMELGSLRSEDTAVYYCTRRKMTTAFDSWGQGTLVTVSS
VL: QPVLTQPPSASASLGASVTLTCTLSSAYSNYKVDWYQQRPGKGPRFVMRVGTGGIVGSKGDGIPDRFSVLGSGLNRYLTIKNIQEEDESDYHCGADHGSGSNFVSPYVFGGGTKLTVL

Legend:
Conditions in all cases: remark: other sources report otherwise
[1] = molecular target: T1, recombinant homotrimeric HA, A/Indonesia/5/05 H5N1 (Influenza A virus A/Indonesia/5/05 (H5N1)); assay: trimeric HA microarray, transfection set 5
[2] = molecular target: T2, recombinant homotrimeric HA, A/swine/Ontario/01911-2/99 H4N6 (Influenza A virus A/swine/Ontario/01911-2/99 (H4N6)); assay: trimeric HA microarray, transfection set 5
[3] = molecular target: T3, recombinant homotrimeric HA, A/South Carolina/1/18 H1N1 (Influenza A virus A/South Carolina/1/18 (H1N1)); assay: trimeric HA microarray, transfection set 5
[4] = molecular target: T4, recombinant homotrimeric HA, A/Solomon Islands/3/06 H1N1 (Influenza A virus A/Solomon Islands/3/06 (H1N1)); assay: trimeric HA microarray, transfection set 5
[5] = molecular target: T5, recombinant homotrimeric HA, A/Japan/305/57 H2N2 (Influenza A virus A/Japan/305/57 (H2N2)); assay: trimeric HA microarray, transfection set 5
[6] = molecular target: T6, recombinant homotrimeric HA, A/California/4/09 H1N1 (Influenza A virus A/California/4/09 (H1N1)); assay: trimeric HA microarray, transfection set 5
[7] = molecular target: T7, recombinant homotrimeric HA, A/Vietnam/1203/04 H5N1 (Influenza A virus A/Vietnam/1203/04 (H5N1)); assay: trimeric HA microarray, transfection set 5
[8] = molecular target: T8, recombinant homotrimeric HA, A/chicken/Vietnam/NCVD-016/08 H5N1 (Influenza A virus A/chicken/Vietnam/NCVD-016/08 (H5N1)); assay: trimeric HA microarray, transfection set 1
[9] = molecular target: T1, recombinant homotrimeric HA, …; assay: trimeric HA microarray, transfection set 1
[10] = molecular target: T9, recombinant homotrimeric HA, A/Egypt/3300-NAMRU3/08 H5N1 (Influenza A virus A/Egypt/3300-NAMRU3/08 (H5N1)); assay: trimeric HA microarray, transfection set 1
[11] = molecular target: T10, recombinant homotrimeric HA, A/Hong Kong/2108/03 H9N2 (Influenza A virus A/Hong Kong/2108/03 (H9N2)); assay: trimeric HA microarray, transfection set 1
[12] = molecular target: T2, recombinant homotrimeric HA, …; assay: trimeric HA microarray, transfection set 1
[13] = molecular target: T3, recombinant homotrimeric HA, A/South …; assay: trimeric HA microarray, transfection set 1
[14] = molecular target: T4, recombinant homotrimeric HA, A/Solomon …; assay: trimeric HA microarray, transfection set 1
[15] = molecular target: T5, recombinant homotrimeric HA, …; assay: trimeric HA microarray, transfection set 1
[16] = molecular target: T6, recombinant homotrimeric HA, …; assay: trimeric HA microarray, transfection set 1
[17] = molecular target: T7, recombinant homotrimeric HA, …; assay: trimeric HA microarray, transfection set 1
[18] = molecular target: T11, recombinant homotrimeric HA, A/common magpie/Hong Kong/5052/07 H5N1 (Influenza A virus A/common magpie/Hong Kong/5052/07 (H5N1)); assay: trimeric HA microarray, transfection set 1
[19] = molecular target: T8, recombinant homotrimeric HA, …; assay: trimeric HA microarray, transfection set 2
[20] = molecular target: T1, recombinant homotrimeric HA, …; assay: trimeric HA microarray, transfection set 2
[21] = molecular target: T9, recombinant homotrimeric HA, …; assay: trimeric HA microarray, transfection set 2
[22] = molecular target: T10, recombinant homotrimeric HA, A/Hong …; assay: trimeric HA microarray, transfection set 2
[23] = molecular target: T2, recombinant homotrimeric HA, …; assay: trimeric HA microarray, transfection set 2
[24] = molecular target: T3, recombinant homotrimeric HA, A/South …; assay: trimeric HA microarray, transfection set 2
[25] = molecular target: T4, recombinant homotrimeric HA, A/Solomon …; assay: trimeric HA microarray, transfection set 2
[26] = molecular target: T5, recombinant homotrimeric HA, …; assay: trimeric HA microarray, transfection set 2
[27] = molecular target: T6, recombinant homotrimeric HA, …; assay: trimeric HA microarray, transfection set 2
[28] = molecular target: T7, recombinant homotrimeric HA, …; assay: trimeric HA microarray, transfection set 2
[29] = molecular target: T11, recombinant homotrimeric HA, A/common …; assay: trimeric HA microarray, transfection set 2

Binder	Trimeric HA Binding RLU [1] [RLU]	Trimeric HA Binding RLU [2] [RLU]	Trimeric HA Binding RLU [3] [RLU]	Trimeric HA Binding RLU [4] [RLU]	Trimeric HA Binding RLU [5] [RLU]	Trimeric HA Binding RLU [6] [RLU]	Trimeric HA Binding RLU [7] [RLU]	Trimeric HA Binding RLU [8] [RLU]	Trimeric HA Binding RLU [9] [RLU]	Trimeric HA Binding RLU [10] [RLU]	Trimeric HA Binding RLU [11] [RLU]	Trimeric HA Binding RLU [12] [RLU]	Trimeric HA Binding RLU [13] [RLU]	Trimeric HA Binding RLU [14] [RLU]	Trimeric HA Binding RLU [15] [RLU]	Trimeric HA Binding RLU [16] [RLU]	Trimeric HA Binding RLU [17] [RLU]	Trimeric HA Binding RLU [18] [RLU]	Trimeric HA Binding RLU [19] [RLU]	Trimeric HA Binding RLU [20] [RLU]	further results
B1	18500	54800	32000	30100	23300	17600	21500	27800	16600	16100	78	26500	21500	29800	15100	18300	1300	29700	27300	19700	Trimeric HA Binding RLU [21]: 21400 RLU; Trimeric HA Binding RLU [22]: 23 RLU; Trimeric HA Binding RLU [23]: 32500 RLU; Trimeric HA Binding RLU [24]: 24700 RLU; Trimeric HA Binding RLU [25]: 31400 RLU; Trimeric HA Binding RLU [26]: 22600 RLU; Trimeric HA Binding RLU [27]: 15600 RLU; Trimeric HA Binding RLU [28]: 15000 RLU; Trimeric HA Binding RLU [29]: 16800 RLU
B2	55000	1700	52000	37600	22000	34400	27800	10800	18500	25500	41	49	26400	6780	191	17700	80	6240	17600	24500	Trimeric HA Binding RLU [21]: 30700 RLU; Trimeric HA Binding RLU [22]: 18 RLU; Trimeric HA Binding RLU [23]: 82 RLU; Trimeric HA Binding RLU [24]: 25500 RLU; Trimeric HA Binding RLU [25]: 3270 RLU; Trimeric HA Binding RLU [26]: 882 RLU; Trimeric HA Binding RLU [27]: 18700 RLU; Trimeric HA Binding RLU [28]: 26200 RLU; Trimeric HA Binding RLU [29]: 7210 RLU

— patent US20120207760A1
